Assay results reported in article PMC10458388 (2023).

Target: C-terminus of human Hsp90α (residues 566-732) (Homo sapiens (Human), UniProt P07900)
Assay: SEC-MALS-QELS

Chain of C-terminus of human Hsp90α (residues 566-732) (P07900 566-732): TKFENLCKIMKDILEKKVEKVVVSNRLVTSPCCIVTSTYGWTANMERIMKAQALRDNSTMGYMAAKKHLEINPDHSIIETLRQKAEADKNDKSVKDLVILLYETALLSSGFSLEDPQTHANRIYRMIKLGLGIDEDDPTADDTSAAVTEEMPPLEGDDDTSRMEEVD

B1: Sorghum bicolor RPAP3 (RNA polymerase II-associated protein 3), isoform 2 (protein)
chain: MEYKARSSGTSGTSTKSFRDLYNMKYSSYLNDEPMPDATSEKEQGNEYFKQKKFADAIECYSRSIGLSPTAVTFANRAMAYLKLRRFKEAEDDCTEALNLDDRYIKAYSRRITARKELGKLKEAMEDAEFAISLDPNNPELRKQYSEIKALHMEKMAKKVPAPAKRAVSGIAKTADVTSHPPTISQKDTIMEVDPPVGDAMKIRESASGRSNGGSGVIINDNTIQTQGRDANLKPGPEVSVQDLAARAASRYMASTVKSVKTPKTAYDFEVSWRALSDDTAQQIQLLKSIPPASLPEIFKNALSAPFLIDIVKCSASIFRDDTALAVSILENLARVPRFDLIIMCLSSMHKSELRKIWDQVFLAEKASADDQMEALRQLRGRYIPGGWQDSMLTSS
binding result: binds
